Consider three substances from publication PMC7137648.

In experiment [1] the target is C1q (Homo sapiens) (UniProt P02745). As to conditions: cited from earlier work.
Experiment [2] has as its target complement protein C1q (human) (UniProt P02745). Put plainly: SPR; N-glycosylation site mutants of SR-F1(20-421) with C1q (Figures S5A-C), n = 2; which partner was immobilised is not told in the text shown; apparent affinity.
Experiment [3] concerns the target C1q (Homo sapiens) (UniProt P02745). As to conditions: cited from earlier work. This is another data set of the same source.

Read-outs that look alike come from different tables or passages of the source.

C1q (Homo sapiens), sequence (P02745 23-245, chain 1 of 3): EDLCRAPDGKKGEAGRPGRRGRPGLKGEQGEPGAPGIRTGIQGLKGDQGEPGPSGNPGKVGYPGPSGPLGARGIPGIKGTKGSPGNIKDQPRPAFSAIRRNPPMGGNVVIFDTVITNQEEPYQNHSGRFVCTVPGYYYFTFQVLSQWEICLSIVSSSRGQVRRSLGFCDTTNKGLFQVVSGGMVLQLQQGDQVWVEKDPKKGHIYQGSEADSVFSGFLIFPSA
C1q (Homo sapiens), sequence (P02746 28-253, chain 2 of 3, further chain): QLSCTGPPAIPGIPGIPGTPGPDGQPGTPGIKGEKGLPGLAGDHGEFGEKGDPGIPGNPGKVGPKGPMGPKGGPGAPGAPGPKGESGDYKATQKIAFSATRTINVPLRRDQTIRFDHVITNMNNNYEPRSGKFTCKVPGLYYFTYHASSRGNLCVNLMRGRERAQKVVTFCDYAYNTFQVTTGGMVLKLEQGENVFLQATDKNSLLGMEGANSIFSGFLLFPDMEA
C1q (Homo sapiens), sequence (P02747 29-245, chain 3 of 3, further chain): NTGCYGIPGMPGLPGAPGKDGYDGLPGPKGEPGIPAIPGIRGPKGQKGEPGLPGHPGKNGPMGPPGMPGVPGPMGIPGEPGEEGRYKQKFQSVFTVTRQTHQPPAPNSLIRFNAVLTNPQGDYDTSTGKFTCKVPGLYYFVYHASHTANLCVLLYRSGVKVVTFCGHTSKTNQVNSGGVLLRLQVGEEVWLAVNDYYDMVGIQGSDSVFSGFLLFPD
complement protein C1q (human), sequence (P02745 23-245, chain 1 of 3): as the sequence (P02745 23-245, chain 1 of 3) above
complement protein C1q (human), sequence (P02746 28-253, chain 2 of 3, further chain): as the sequence (P02746 28-253, chain 2 of 3, further chain) above
complement protein C1q (human), sequence (P02747 29-245, chain 3 of 3, further chain): as the sequence (P02747 29-245, chain 3 of 3, further chain) above
calreticulin, sequence (P27797 18-417): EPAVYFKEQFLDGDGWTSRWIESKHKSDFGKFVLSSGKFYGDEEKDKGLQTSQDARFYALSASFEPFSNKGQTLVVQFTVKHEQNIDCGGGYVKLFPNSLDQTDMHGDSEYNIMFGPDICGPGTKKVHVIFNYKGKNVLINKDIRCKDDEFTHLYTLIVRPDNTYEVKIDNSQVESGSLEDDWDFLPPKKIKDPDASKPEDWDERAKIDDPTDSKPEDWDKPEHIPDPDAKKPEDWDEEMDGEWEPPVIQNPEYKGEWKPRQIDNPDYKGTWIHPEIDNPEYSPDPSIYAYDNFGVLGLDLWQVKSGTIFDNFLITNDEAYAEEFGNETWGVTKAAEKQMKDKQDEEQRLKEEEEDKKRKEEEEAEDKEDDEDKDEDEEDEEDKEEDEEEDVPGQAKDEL
SR-F1 ECD, sequence (Q14162 20-421): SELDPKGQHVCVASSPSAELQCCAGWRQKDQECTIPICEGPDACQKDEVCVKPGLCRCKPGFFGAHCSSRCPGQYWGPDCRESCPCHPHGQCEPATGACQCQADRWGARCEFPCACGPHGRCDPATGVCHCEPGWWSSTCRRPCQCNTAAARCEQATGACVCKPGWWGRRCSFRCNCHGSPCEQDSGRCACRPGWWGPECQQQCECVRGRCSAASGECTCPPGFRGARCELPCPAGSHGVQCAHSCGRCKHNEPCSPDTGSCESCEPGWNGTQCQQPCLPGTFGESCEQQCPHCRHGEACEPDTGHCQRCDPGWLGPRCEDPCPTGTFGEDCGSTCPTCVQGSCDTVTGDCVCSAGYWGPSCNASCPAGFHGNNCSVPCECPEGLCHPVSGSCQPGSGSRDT

As for SR-F1 ECD (from UniProt Q14162), the Kd in the experiment with C1q (Homo sapiens) [1] was 124 nM. “SR-F1(20-421) N289Q (from UniProt Q14162 20-421) (domain or fragment)”: in experiment [2], the Kd is 581 nM.

calreticulin (from UniProt P27797): the Kd in the experiment with C1q (Homo sapiens) [3] is 120 nM.
